Experiments:
[1] = target: C-terminal SH2 domain of PI3K regulatory subunit 1 (UniProt P27986); assay: FP
[2] = target: N-terminal SH2 domain of PI3K regulatory subunit 1 (UniProt P27986); assay: FP
Sequence of N-terminal SH2 domain of PI3K regulatory subunit 1 (P27986 321-433): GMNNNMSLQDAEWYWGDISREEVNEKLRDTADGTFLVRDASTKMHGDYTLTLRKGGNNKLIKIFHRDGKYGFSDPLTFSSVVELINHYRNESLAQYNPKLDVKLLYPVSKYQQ

Sequence of C-terminal SH2 domain of PI3K regulatory subunit 1 (P27986 614-724): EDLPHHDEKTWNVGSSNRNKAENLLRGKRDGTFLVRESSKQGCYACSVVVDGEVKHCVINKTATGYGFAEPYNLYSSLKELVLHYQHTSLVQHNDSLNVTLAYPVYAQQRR

Row | Kd [1] [µM] | Kd [2] [µM] | Substance
1 | 6.5 | 53.2 | phospho-meta-Tyr IRS-1 peptide GRKGSGD(pY)MPMSPKV
2 | > 40 | > 150 | phospho-ortho-Tyr IRS-1 peptide GRKGSGD(pY)MPMSPKV

— paper PMC9138545, “Incorporation of Oxidized Phenylalanine Derivatives into Insulin Signaling Relevant Proteins May Link Oxidative Stress to Signaling Conditions Underlying Chronic Insulin Resistance” (Biomedicines, 2022)
